Results as given in patent US20160237160A1 (Bayer, published 2016).

Assays:
[1] = target: T1, TWEAKR (TNFRSF12A, FN14), human, on tumor cell lines (human, UniProt Q9NP84 28-129); test: cell-based or functional assay
[2] = target: T1, TWEAKR (TNFRSF12A, FN14), human, on …; test: cell-based or functional assay; remark: listed apart in the source
[3] = target: T1, TWEAKR (TNFRSF12A, FN14), human, on …; test: FACS, A375 cells, 10 ug/ml
Procedure: (§1) To determine the binding characteristics of the anti-TWEAKR antibodies on mouse and human cancer cell lines, binding was tested by flow cytometry to a panel of cell lines. […] Cells were suspended at approximately 10⁵ cells/well in FACS buffer (PBS without Ca/Mg, containing 3% FCS, Biochrom). Cells were centrifuged (250 g, 5 min, 4° C.) and supernatant discarded. Cells were resuspended in dilutions of the antibodies of interest (10 μg/ml in 80 μl if not indicated otherwise) in FACS buffer, and incubated on ice for 1 h. […] After incubation for 1 h on ice cells were again washed with cold FACS buffer, resuspended in 1000 FACS buffer and analyzed by flow cytometry using a FACS-Array (BD Biosciences). Results are calculated as Geo Mean of fluorescence detected by the antibody of interest subtracted by background fluorescence as measured by detection with the secondary antibody alone. Values are scored according to the following system: Geo Mean−Geo Mean of secondary antibody alone >10: +, >100: ++, >1000: +++, 10000: ++++, close to category border in ( ).

[4] = target: T1, TWEAKR (TNFRSF12A, FN14), human, on …; test: FACS, HT29 cells, 10 ug/ml
Procedure: as §1

[5] = target: T1, TWEAKR (TNFRSF12A, FN14), human, on …; test: FACS, WiDr cells, 10 ug/ml
Procedure: as §1

[6] = target: T1, TWEAKR (TNFRSF12A, FN14), human, on …; test: FACS, 786-O cells, 10 ug/ml
Procedure: as §1

[7] = target: T1, TWEAKR (TNFRSF12A, FN14), human, on …; test: FACS, SKOV-3 cells, 10 ug/ml
Procedure: as §1

[8] = target: T1, TWEAKR (TNFRSF12A, FN14), human, on …; test: FACS, NCI-H322 cells, 10 ug/ml
Procedure: as §1

[9] = target: T2, TPP-2305 (hTNFRSF12Aaa28-80) (Human, UniProt Q9NP84 28-80); test: SPR (Biacore T100), IgG captured, TPP-2305 injected, 1:1 model
T2 construct: monomeric extracellular domain, bought; also called purified recombinant human TWEAKR protein; soluble monomeric TWEAKR
Procedure: Binding affinities of anti-TWEAKR antibodies were determined by surface plasmon resonance analysis on a Biacore T100 instrument (GE Healthcare Biacore, Inc.). Antibodies were immobilized onto a CM5 sensor chip through an indirect capturing reagent, anti-human IgG(Fc). […] Anti-TWEAKR antibodies were injected at a concentration of 10 μg/ml at 10 μl/min for 10 sec.
Sensorgrams were generated after in-line reference cell correction followed by buffer sample subtraction. The dissociation equilibrium constant (KD) was calculated based on the ratio of association (kₒₙ) and dissociation rated (koff) constants, obtained by fitting sensorgrams with a first order 1:1 binding model.

[10] = target: TPP-1986 (hTNFRSF12Aaa28-80-T33Q-hIgG1-Fc) (human); test: ELISA, TWEAKR-Fc coated 62 ng/ml, biotin-IgG titrated; + means IC50 1 to 150 pM;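 also: biotinylated IgG binding to immobilized TWEAKR-Fc muteins, detected with Streptavidin-HRP and Amplex Red, IC50 derived from fitted dose-response curves of twofold serial dilutions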
Procedure: (§2) To collect dose-response data, the different TWEAKR-Fc muteins were coated with a low concentration (62 ng/ml) in a 384-well Maxisorb ELISA plate and a serial 2fold dilution of biotinylated IgG starting with a concentration of 100 nM was used as soluble binding partner. Detection was done with Streptavidin-HRP and Amplex Red.
(§3) The dose-response data were fitted and IC50s determined.

[11] = target: TPP-1987 (hTNFRSF12Aaa28-80-S40R-hIgG1-Fc) (human); test: as above
Procedure: as §2, §3

[12] = target: TPP-1988 (hTNFRSF12Aaa28-80-M50A-hIgG1-Fc) (human); test: as above
Procedure: as §2, §3

[13] = target: TPP-2683 (hTNFRSF12Aaa28-80-R56P-hIgG1-Fc) (human); test: as above
Procedure: as §2, §3

[14] = target: TPP-1989 (hTNFRSF12Aaa28-80-H60K-hIgG1-Fc) (human); test: as above
Procedure: as §2, §3

[15] = target: TPP-1990 (hTNFRSF12Aaa28-80-L65Q-hIgG1-Fc) (human); test: as above
Procedure: as §2, §3

[16] = target: T3, TPP-2202 (TWEAKR-ECD-28-80-hIgGFc-His) (human); test: ELISA, TPP-2202 coated at 1 µg/ml, biotinylated IgG at 0.08 µg/ml (open bar) and 0.3 µg/ml (filled bar), Streptavidin-HRP, Amplex Red
T3 construct: dimeric; also called TWEAKR-Fc fusion protein; full ectodomain 28-80
T3 sequence (chain, as listed by the source limits assumed): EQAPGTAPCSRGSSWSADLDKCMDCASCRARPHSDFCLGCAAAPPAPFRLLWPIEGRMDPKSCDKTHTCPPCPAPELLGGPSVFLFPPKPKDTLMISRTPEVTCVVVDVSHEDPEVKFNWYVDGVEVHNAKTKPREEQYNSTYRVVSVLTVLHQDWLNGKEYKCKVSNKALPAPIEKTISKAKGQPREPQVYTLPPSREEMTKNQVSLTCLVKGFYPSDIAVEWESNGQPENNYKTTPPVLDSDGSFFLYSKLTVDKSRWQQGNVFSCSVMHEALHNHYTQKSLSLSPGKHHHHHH
Procedure: Detection was done with Streptavidin-HRP and Amplex-Red substrate.
To analyze for binding, 1 μg/ml of the respective dimeric TWEAKR-Fc construct were coated and, 0.3 μg/ml and 0.08 μg/ml of biotinylated IgG were used as soluble binding partner. Detection was done with Streptavidin-HRP and Amplex-Red substrate.

[17] = target: T4, TPP-2607 (TweakR-ECD-34-68-hIgGFc-His-S37A) (human); test: ELISA, IgG coated 1 ug/ml, HEK293 supernatant titrated
T4 construct: used as HEK293 supernatant
Procedure: (§4) These TWEAKR(34-68)-Fc muteins were expressed in HEK293 cells. To collect dose-response data, IgGs were coated at a concentration of 1 μg/ml in a 384-well Maxisorp ELISA plate and a serial 2fold dilution of the TWEAKR mutein containing supernatant was used as soluble binding partner. Detection was done with anti-HIS-HRP and Amplex Red.

[18] = target: TPP-2610 (TweakR-ECD-34-68-hIgGFc-His-S41A) (human); test: as above
Procedure: as §4

[19] = target: T5, TPP-2612 (TweakR-ECD-34-68-hIgGFc-His-S43A) (human); test: as above
T5 construct: used as HEK293 supernatant
Procedure: as §4

[20] = target: T6, TPP-2613 (TweakR-ECD-34-68-hIgGFc-His-D45A) (human); test: as above
T6 construct: used as HEK293 supernatant
Procedure: as §4

[21] = target: T7, TPP-2615 (TweakR-ECD-34-68-hIgGFc-His-K48A) (human); test: as above
T7 construct: used as HEK293 supernatant
Procedure: as §4

[22] = target: T8, TPP-2617 (TweakR-ECD-34-68-hIgGFc-His-S54A) (human); test: as above
T8 construct: used as HEK293 supernatant
Procedure: as §4

[23] = target: T9, TPP-2618 (TweakR-ECD-34-68-hIgGFc-His-R56A) (human); test: as above
T9 construct: used as HEK293 supernatant
Procedure: as §4

[24] = target: T10, TPP-2624 (TweakR-ECD-34-68-hIgGFc-His-F63A) (human); test: as above
T10 construct: used as HEK293 supernatant
Procedure: as §4

[25] = target: T11, TPP-2625 (TweakR-ECD-34-68-hIgGFc-His-L65A) (human); test: as above
T11 construct: used as HEK293 supernatant
Procedure: as §4

Binder	IL-8 release from A375 cells at 100 ug/ml, % of the activation by 300 ng/ml TWEAK ligand [1] [%]	% Inhibition of proliferation, 786-O cells, 96h, 100 ug/ml [2] [%]	% Inhibition of proliferation, A253 cells, 72h, 100 ug/ml [2] [%]	% Inhibition of proliferation, HT-29 cells, 24h, 100 ug/ml [2] [%]	GeoMean of Fluorescence minus GeoMean with the secondary antibody only [3]	GeoMean of Fluorescence minus GeoMean with the secondary antibody only [4]	GeoMean of Fluorescence minus GeoMean with the secondary antibody only [5]	GeoMean of Fluorescence minus GeoMean with the secondary antibody only [6]	GeoMean of Fluorescence minus GeoMean with the secondary antibody only [7]	GeoMean of Fluorescence minus GeoMean with the secondary antibody only [8]	Kd [9] [nM]	binding result [10]	binding result [11]	binding result [12]	binding result [13]	binding result [14]	binding result [15]	binding result [16]	other results
TPP-2090 (antibody, human IgG1, kappa, V domains shown, Human IgG1) VH: EVQLLESGGGLVQPGGSLRLSCAASGFTFSPYPMIWVRQAPGKGLEWVSYISPSGGSTHYADSVKGRFTISRDNSKNTLYLQMNSLRAEDTAVYYCARGGDTYFDYFDYWGQGTLVTVSS VL: DIQMTQSPSSLSASVGDRVTITCRASQSISGYLNWYQQKPGKAPKLLIYQASSLQSGVPSRFSGSGSGTDFTLTISSLQPEDFATYYCQQSYTSPFITFGQGTKVEIKR	103	71	99	> 100	561	1420	2420	20300	2870	291	12.4	binds	binds	binds	binds	binds	binds	binds	
P4A8(TPP-1324) (antibody, human IgG1, kappa, V domains shown, Human IgG1; variable domains from WO2009/140177 with constant region added) VH: QVQLVQSGAEVKKPGASVKVSCKGSGYTFTDYGMHWVRQAPGQGLEWMGVISTYNGYTNYNQKFKGRVTMTVDKSTSTAYMELRSLRSDDTAVYYCARAYYGNLYYAMDYWGQGTLVTVSS VL: DIVLTQSPASLAVSLGQRATISCRASKSVSTSSYSYMHWYQQKPGQPPKLLIKYASNLESGVPARFSGSGSGTDFSLNIHPMEEDDTAMYFCQHSRELPFTFGGGTKLEIKR	29	29	37	-10	1580	3670	5920	30200	5970	978	2.3	binds	binds	binds	binds	binds	binds	binds	% Inhibition of proliferation, WiDr cells, 96h, 100 ug/ml [2]: 4%; binding result [17]: no binding; binding result [18]: no binding; binding result [19]: no binding; binding result [20]: no binding; binding result [21]: no binding; binding result [22]: no binding; binding result [23]: no binding; binding result [24]: no binding; binding result [25]: no binding; koff [9]: 0.0027 s⁻¹; kon [9]: 1.2e+06 M⁻¹ s⁻¹
